Numbering of substitutions follows the chain as printed.
Columns and labels:
[1] = biological target: T1, MS2 bacteriophage coat protein (MS2 bacteriophage, UniProt P03612 2-130); experiment: SPR (Biacore T200), MS2 immobilised on CM5 chip, scFv in solution
T1 sequence: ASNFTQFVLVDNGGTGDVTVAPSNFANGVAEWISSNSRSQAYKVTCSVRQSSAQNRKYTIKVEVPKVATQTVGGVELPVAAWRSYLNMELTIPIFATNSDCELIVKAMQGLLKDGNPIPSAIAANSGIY
Protocol: (§1) Binding affinity measurements for the antibody variants were obtained by surface immobilization of antigen. Specifically, kinetic analysis was performed using a Biacore T200 (GE Healthcare, Waukesha, Wis.). […] For full-length IgGs, a capture assay was used to allow accurate assessment of antibody affinity. […] Surfaces were regenerated using 3 M MgCl₂. Association and dissociation kinetic values (kₐ and kd) were determined from a best fit of the data with the 1:1 Langmuir global fitting procedure to sensorgrams using the Biacore T200 Evaluation Software, version 1.0.

[2] = biological target: T1, MS2 bacteriophage coat protein; experiment: SPR (Biacore), FIG. 2D
[3] = biological target: T1, MS2 bacteriophage coat protein; experiment: SPR (Biacore T200), IgG captured on anti-human IgG Fc, MS2 antigen flowed over
Protocol: as §1

[4] = biological target: T1, MS2 bacteriophage coat protein; experiment: SPR (Biacore), FIG. 2C
[5] = biological target: T1, MS2 bacteriophage coat protein; experiment: SPR (Biacore), FIG. 7C
[6] = biological target: T1, MS2 bacteriophage coat protein; experiment: SPR (Biacore), FIG. 3D
[7] = biological target: T1, MS2 bacteriophage coat protein; experiment: SPR (Biacore)

B1: mouse anti-MS2 scFv (scFv)
scFv: EVKLVESGGGLVKPGGSLKLSCAASGFTFSSYAMSWVRQTPEKRLEWVATISTGGGYTYFPDSVKGRFTISRDNAKNALYLQMKSLRSEDTAMYYCARQGDFGDWYFDVWGAGTTVTVSSGGGGSGGGGSGGGGSDVLMTQTPLSLPVSLGDQASISCRSSQSLVHSNGNTYLHWYLQKPGQSPKLLIYKVSNRFSGVPDRFSGSGSGTDFTLKISRVEAEDLGVYFCSQSTHVPWTFGGGTKLEIK
[1]
  Kd: 29 nM
[2]
  koff: 0.008 s⁻¹
  kon: 280000 M⁻¹ s⁻¹

B2: APE443 (antibody, V domains shown)
VH: EVQLLESGGGLVQPGGSLRLSCAASGFTFSSYAMSWVRQAPGKGLEWVSTISTGGGYTYFPDSVKGRFTISRDNSKNTLYLQMNSLRAEDTAVYYCARQGDFGDWYFDVWGAGTTVTVSS
VL: DVVMTQSPLSLPVTLGQPASISCRSSQSLVHSNGNTYLHWFQQRPGQSPRRLIYKVSNRFSGVPDRFSGSGSGTDFTLKISRVEAEDVGVYYCSQSTHVPWTFGGGTKLEIK
notes: also called initial CDR-grafted antibody; initial grafted antibody
[3]
  Kd: 84 nM
[4]
  Kd: 170 nM
  koff: 0.011 s⁻¹
  kon: 68000 M⁻¹ s⁻¹

B3: APE1027 (antibody, V domains shown)
VH: B2 VH with L5V, R19I, A23V, S49C, F60S, I70C
VL: B2 VL with M4L, P12A, T14L, Q27E, S32T, F41Y, R51L, Y92F, H98R
[3]
  Kd: 0.88 nM
[5]
  koff: 8.5e-05 s⁻¹
  kon: 97000 M⁻¹ s⁻¹

B4: APE830 (antibody, V domains shown)
VH: B2 VH with A23V
VL: B2 VL with Q27E, S32T, F41Y, R51L, Y92F, H98R
[3]
  Kd: 1.6 nM

B5: APE556 (antibody, V domains shown)
VH: B2 VH
VL: B2 VL with F41Y, R51L, Y92F
[3]
  Kd: 27 nM
[6]
  koff: 0.0055 s⁻¹
  kon: 210000 M⁻¹ s⁻¹

B6: APE1052 (antibody, V domains shown)
VH: B2 VH
VL: B2 VL with Q27E, S32T, F41Y, R51L, Y92F, H98R
[3]
  Kd: 4.2 nM
[7]
  fold improvement in KD over the initial grafted antibody (APE443): 20 fold

B7: APE1051 (antibody, V domains shown)
VH: B2 VH with A23V
VL: B2 VL with F41Y, R51L, Y92F
[3]
  Kd: 15.1 nM

B8: APE850 (antibody, V domains shown)
VH: B2 VH with A23V, F60S
VL: B2 VL with Q27E, S32T, F41Y, R51L, Y92F, H98R
[3]
  Kd: 0.985 nM
[7]
  fold improvement in KD over the initial grafted antibody (APE443): 85 fold
  fold improvement in ka over the initial grafted antibody (APE443): 12 fold
  fold improvement in kd over the initial grafted antibody (APE443): 7 fold

B9: APE849 (antibody, V domains shown)
VH: B2 VH with F60S
VL: B2 VL with Q27E, S32T, F41Y, R51L, Y92F, H98R
[3]
  Kd: 2 nM
[7]
  fold improvement in affinity (reference not given): 40 fold

B10: APE565 (antibody, V domains shown)
VH: B2 VH with S49C, I70C
VL: B2 VL with F41Y, R51L, Y92F
[3]
  Kd: 7 nM
[7]
  fold improvement in KD over APE556: 4 fold
